The target of the assay is mCerulean-Hsp70 (UniProt P0DMV8). Briefly: FRET or BRET.
UniProt P0DMV8, sequence (P0DMV8 whole entry): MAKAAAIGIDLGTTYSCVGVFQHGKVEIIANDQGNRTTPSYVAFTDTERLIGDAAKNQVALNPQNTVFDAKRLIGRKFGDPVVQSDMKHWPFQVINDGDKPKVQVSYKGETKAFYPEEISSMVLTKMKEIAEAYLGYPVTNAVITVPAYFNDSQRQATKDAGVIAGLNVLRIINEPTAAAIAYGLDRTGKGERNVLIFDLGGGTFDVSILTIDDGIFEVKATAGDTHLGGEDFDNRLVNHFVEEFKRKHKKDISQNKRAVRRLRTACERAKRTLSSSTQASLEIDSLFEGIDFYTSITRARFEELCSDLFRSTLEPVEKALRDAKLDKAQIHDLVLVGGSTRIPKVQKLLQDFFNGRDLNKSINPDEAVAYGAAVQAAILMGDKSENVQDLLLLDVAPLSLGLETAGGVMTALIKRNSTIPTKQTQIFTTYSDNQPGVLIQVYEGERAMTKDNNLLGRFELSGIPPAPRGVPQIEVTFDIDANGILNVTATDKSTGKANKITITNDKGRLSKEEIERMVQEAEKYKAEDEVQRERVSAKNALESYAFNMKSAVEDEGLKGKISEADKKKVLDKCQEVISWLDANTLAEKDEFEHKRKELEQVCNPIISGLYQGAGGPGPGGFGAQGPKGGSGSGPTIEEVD

As to “mVenus-OLA1 (from UniProt Q9NTK5 1-396) (natural protein)”, the percent FRET efficiency was 33%.

The values above are taken from publication PMC6739165.
